Measured values published in patent EP4775675A1.

What was measured:
[1] = biological target: cynomolgus monkey BDCA-2 on cells (Jurkat-cynoBDCA-2 cells; cynomolgus monkey pDCs) (cynomolgus monkey); assay: flow cytometry on Jurkat-cynoBDCA-2 cells
[2] = biological target: human BDCA-2 on cells (Jurkat-hBDCA-2 cells; human pDCs; human PBMCs) (human) (UniProt Q8WTT0); assay: flow cytometry on Jurkat-hBDCA-2 cells
Sequence of human BDCA-2 on cells (Jurkat-hBDCA-2 cells; human pDCs; human PBMCs) (human) (Q8WTT0 whole entry): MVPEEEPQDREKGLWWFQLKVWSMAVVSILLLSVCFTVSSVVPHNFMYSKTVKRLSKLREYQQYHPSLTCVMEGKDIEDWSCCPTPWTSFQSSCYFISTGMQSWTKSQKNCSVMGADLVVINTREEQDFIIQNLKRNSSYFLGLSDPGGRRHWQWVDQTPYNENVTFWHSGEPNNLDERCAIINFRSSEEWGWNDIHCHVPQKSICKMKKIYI

Sequence of cynomolgus monkey BDCA-2 on cells (Jurkat-cynoBDCA-2 cells; cynomolgus monkey pDCs) (cynomolgus monkey) (chain, as listed by the source): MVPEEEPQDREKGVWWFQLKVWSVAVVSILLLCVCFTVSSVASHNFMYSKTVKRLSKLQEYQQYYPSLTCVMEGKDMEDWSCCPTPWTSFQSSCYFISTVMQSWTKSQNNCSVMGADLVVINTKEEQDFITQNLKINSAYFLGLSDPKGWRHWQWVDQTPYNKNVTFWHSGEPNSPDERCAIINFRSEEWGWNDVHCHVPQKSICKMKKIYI

MFI [1]: 67.3
MFI [2]: 17.5
Substance: Isotype control (antibody)
